Common to all, as to test: purified protein
Common to all, as to settings: pH 6.5, 55 °C, 10 min, sodium phosphate, metal-dependent enzyme

Substrate in data set [1]: O=[N+]([O-])c1ccc(O[C@H]2OC[C@@H](O)[C@@H](O)[C@@H]2O)cc1
Substrate in data set [2]: O=[N+]([O-])c1ccc(O[C@H]2O[C@H](CO)[C@@H](O)[C@@H]2O)cc1
Substrate in data set [3]: O=[N+]([O-])c1ccc(O[C@@H]2O[C@H](CO)[C@H](O)[C@H](O)[C@H]2O)cc1
Substrate in data set [4]: C[C@H]1O[C@@H](Oc2ccc([N+](=O)[O-])cc2)[C@H](O)[C@@H](O)[C@H]1O

We go through 1 protein from PMC8155123, “A novel fungal metal-dependent α-L-arabinofuranosidase of family 54 glycoside hydrolase shows expanded substrate specificity” (Scientific Reports, 2021).

B1: ThABF (Trichoderma harzianum) (protein)
chain: GPCDIYSSGGTPCVAAHSTTRALYSAYTGPLYQVKRGSDGATTTISPLSSGVANAAAQDSFCAGTTCLITIIYDQSGRGNHLTQAPPGGFNGPESNGYDNLASAIGAPVTLNGQKAYGVFISPGTGYRNNAASGTAKGDAAEGMYAVLDGTHYNGACCFDYGNAETSSRDTGNGHMEAIYYGDSTVWGTGSGNGPWIMADLENGLFSGSAVHNNAGDPSISYRFVTAAVKGQPNQWAIRGGNSASGSLSTFYNGARPSASGYNPMSKEGAIILGIGGDNSNGAQGTFYEGVMTSGYPSDATENSVQANIVAAKYAVTSLTSGPALTTGSSVSLRATTACCTTRYITHSGSTVNTQVVSSSSATAPKQQASWTVRAGLGNSGCFSFESKDTPGSYIRHNNFVLLLNANDGSKQFAEDATFCPQAGLNGQGSSLRAWGYPTRYFRHYDNVLYVASNGGVHTFDATGSFNDDVSFVISASFA
On to B1, for which the Km in data set [1] worked out at 3.30 ± 0.16 mM; in data set [2], 6.75 ± 3.24 mM; in data set [3] it was 1.68 ± 0.12 mM; in data set [4] it was 6.51 ± 1.00 mM. For the same protein, the kcat in data set [1] amounted to 13.4 s⁻¹; in data set [2], 1.61 s⁻¹; in data set [3] it was 35.5 s⁻¹; in data set [4], 35.7 s⁻¹. Moreover, the kcat/Km in data set [1] came to 4070 M⁻¹ s⁻¹; in data set [2] it was 238 M⁻¹ s⁻¹; in data set [3], 21100 M⁻¹ s⁻¹; in data set [4], 5480 M⁻¹ s⁻¹.

As usually defined, the Km is the concentration of substrate that gives half-maximal velocity. The kcat is the maximal rate divided by the concentration of active sites. As a reminder, the kcat/Km is the turnover number divided by the Michaelis constant.
